Drawing on patent publication US20220088279A1 (GAMBRO LUNDIA, published 2022), this text covers Kd for 1 molecule.

The target in the test is T1, CD177 (UniProt Q8N6Q3 22-408, limits assumed).
T1 construct: Immobilized on a GLH sensor chip by amine chemistry for SPR; also called neutrophil receptor CD177
T1 sequence (looked up): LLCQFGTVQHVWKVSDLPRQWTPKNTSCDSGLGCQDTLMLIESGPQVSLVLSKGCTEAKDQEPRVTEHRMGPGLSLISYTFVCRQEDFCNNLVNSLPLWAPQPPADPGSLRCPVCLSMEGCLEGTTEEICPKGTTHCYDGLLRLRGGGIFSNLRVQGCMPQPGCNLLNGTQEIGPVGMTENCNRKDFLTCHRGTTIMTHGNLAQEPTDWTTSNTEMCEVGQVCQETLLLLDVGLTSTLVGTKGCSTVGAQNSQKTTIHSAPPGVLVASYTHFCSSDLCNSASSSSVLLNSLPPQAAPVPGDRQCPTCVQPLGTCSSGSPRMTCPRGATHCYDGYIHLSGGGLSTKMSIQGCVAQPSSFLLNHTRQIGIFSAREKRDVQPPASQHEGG
In words: SPR (ProteOn XPR36), CD177 immobilized on GLH chip by amine chemistry, PR3 variant in a concentration series. As to the method: FIG. 2: Comparison of wtPR3 and monomeric PR3 properties by SPR and ELISA. […] The antibodies each recognize distinct, non-overlapping epitopes on PR3. wtPR3 (left bar) and the monomeric Trp222Ala PR3 variant (right bar) are equally well recognized by the antibodies.
Experiments were performed on a ProteOn XPR36 instrument (BioRad) with proteins immobilized to GLH sensor chips (BioRad) using standard amine chemistry. The binding interaction of a concentration series of soluble monomeric Trp222Ala PR3 variant with immobilized CD177 was assessed (FIG. 2A).

B1: monomeric Trp222Ala PR3 variant (enzyme)
chain: IVGGHEAQPHSRPYMASLQMRGNPGSHFCGGTLIHPSFVLTAAHCLRDIPQRLVNVVLGAHNVRTQEPTQQHFSVAQVFLNNYDAENKLNDVLLIQLSSPANLSASVATVQLPQQDQPVPHGTQCLAMGWGRVGAHDPPAQVLQELNVTVVTFFCRPHNICTFVPRRKAGICFGDSGGPLICDGIIQGIDSFVIAGCATRLFPDFFTRVALYVDWIRSTLRRVEAKGRP
notes: Made as a C-terminal fusion with human Ig1 Fc and secreted through an N-terminal Ig1 signal peptide; The propeptides aa 26-27 and aa 249-256 may also be absent, and residues left by the TEV site may remain at the C-terminus; also called monomeric PR3
What is called Kd is the concentration at which binding is half-saturated. Read a low Kd as higher affinity. For the molecule B1, the affinity, expressed as Kd, was 57 nM.
